Measurements: patent publication US20060070134

Biological target: Human E1 (ubiquitin-activating enzyme) (UniProt P22314)
Sequence of UniProt P22314 (P22314 whole entry): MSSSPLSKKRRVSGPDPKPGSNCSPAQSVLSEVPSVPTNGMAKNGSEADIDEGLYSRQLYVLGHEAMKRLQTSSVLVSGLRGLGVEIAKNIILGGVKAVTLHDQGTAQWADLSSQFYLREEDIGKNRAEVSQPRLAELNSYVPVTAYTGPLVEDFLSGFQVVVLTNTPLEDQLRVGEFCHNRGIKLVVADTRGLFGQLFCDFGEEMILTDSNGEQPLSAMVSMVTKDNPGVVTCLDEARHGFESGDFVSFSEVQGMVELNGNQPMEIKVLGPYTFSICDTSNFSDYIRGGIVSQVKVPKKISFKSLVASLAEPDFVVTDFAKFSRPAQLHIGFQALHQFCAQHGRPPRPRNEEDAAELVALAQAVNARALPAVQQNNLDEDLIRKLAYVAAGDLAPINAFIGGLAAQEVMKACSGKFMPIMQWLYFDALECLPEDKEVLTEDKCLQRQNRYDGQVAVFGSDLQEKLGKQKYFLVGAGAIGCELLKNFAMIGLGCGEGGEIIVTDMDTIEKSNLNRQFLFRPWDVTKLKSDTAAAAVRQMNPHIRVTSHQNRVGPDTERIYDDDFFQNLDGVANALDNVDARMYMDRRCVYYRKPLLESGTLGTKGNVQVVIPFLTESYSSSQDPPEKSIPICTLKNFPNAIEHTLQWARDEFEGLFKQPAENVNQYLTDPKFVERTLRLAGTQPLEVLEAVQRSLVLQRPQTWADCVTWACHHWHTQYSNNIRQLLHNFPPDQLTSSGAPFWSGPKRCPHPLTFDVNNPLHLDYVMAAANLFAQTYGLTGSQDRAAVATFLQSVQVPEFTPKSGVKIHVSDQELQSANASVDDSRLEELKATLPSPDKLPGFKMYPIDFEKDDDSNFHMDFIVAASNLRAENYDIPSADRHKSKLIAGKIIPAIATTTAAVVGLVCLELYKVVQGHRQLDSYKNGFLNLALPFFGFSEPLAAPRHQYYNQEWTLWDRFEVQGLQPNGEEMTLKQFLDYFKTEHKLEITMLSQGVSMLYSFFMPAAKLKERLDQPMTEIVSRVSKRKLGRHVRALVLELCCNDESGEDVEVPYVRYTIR

FLJ11011v2
ubiquitinylation reaction, anti-Ub western blot: FLJ11011v2 is efficiently ubiquitinylated in this assay
